Experimental findings from PMC6343778 (mAbs, 2018) are described below.

A short description of data set [1]: differential scanning fluorimetry. The following applies: glycan gained; control: wild-type HER2 ECD alone or human IgG1 Fc alone. On the technique in general: DSF heats the sample and reads unfolding from a dye or from intrinsic fluorescence.
Data set [2] addresses T1, human MICA*004 α3 domain with a C-terminal His8 (Homo sapiens, MICA*004, UniProt Q29983). The experiment in a line: SPR. In general terms: SPR reads the build-up and loss of mass on a sensor chip optically.
The target in data set [3] is T2, human MICA*002 α3 domain with a C-terminal His8 (Homo sapiens, MICA*002, UniProt Q29983). Kind of data set: SPR.
For data set [4], the target named is T3, human MICB*005 α3 domain with a C-terminal His8 (Homo sapiens, MICB*005, UniProt Q29980). The experiment in a line: SPR.
The target in data set [5] is T3, human MICB*005 α3 domain with a …. Kind of data set: cell-based or functional assay.
The target in data set [6] is T4, human MICA*008 α3 domain with a C-terminal His8 (Homo sapiens, MICA*008).
T4 chain: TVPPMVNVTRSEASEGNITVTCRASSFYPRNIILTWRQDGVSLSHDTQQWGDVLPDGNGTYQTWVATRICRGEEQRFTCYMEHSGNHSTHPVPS
The experiment in a line: SPR.

The target in data set [7] is T1, human MICA*004 α3 domain with a …. The experiment in a line: cell-based or functional assay.
Data set [8] addresses T2, human MICA*002 α3 domain with a …. The experiment in a line: cell-based or functional assay.
Data set [9] deals with T4, human MICA*008 α3 domain with a …. The experiment in a line: cell-based or functional assay.

As for HER2 ECD: K333N, the stability_or_folding result in [1] was “no change”.
As to HER2 ECD: S310N, the stability_or_folding result in [1] is “no change”.
Same read-out and setting: then HER2 ECD: V308N, with “no change”.

B1: anti-MICA/B antibody 6E1 (hybridoma-derived mouse antibody) (antibody, V domains shown)
VH: QGQMQQSGAELVKPGASVKLSCKTSGFTFSDNYISWLKQKPGQSLEWIAWIYAGTGGSSYNQKFRDKAQLTVDTSSRTAYMQLSSLTTEDSAIYYCARHDYYGTSGAWFAYWGRGTLVTVSA
VL: DVLMTQTPLSLPVSLGDQASISCRSSQHIVHSNENTYLEWYLQKPGQSPKLLIYKVSNRFSGVPDRFSGSGSGTDFTLKISRVEAEDLGVYYCFQGSHVPWTFGGGTKLEIK
Usually Kd stands for the free concentration of one partner at which half of the binding sites on the other are occupied at equilibrium, for simple one-to-one binding. The low end stands for tighter binding, the high end for weaker binding. Consider B1, for which the Kd in [2] came to 8.42 nM; in data set [3], 2.96 nM; in data set [4], 5.75 nM. Further, the “EC50 of inhibition of MICB*005 shedding from the HCC1534 cell line” value (“EC50 of inhibition of MICB*005 shedding” below) in [5] worked out at 0.0724 µg/mL. The “Max % inhibition of MICB*005 shedding from the HCC1534 cell line” value (“Max % inhibition of MICB*005 shedding” for short) in data set [5] was 58%.

B2: anti-MICA/B antibody 13A9 (hybridoma-derived mouse antibody) (antibody, V domains shown)
VH: QVQLQQSGAELVRPGTSVKVSCKASGYAFTNYLIEWVKQRPGQGLEWIGAINPGSGATNYNEKFKDKARLTADKSSNTAYLQFSSLTSDDSAVYFCARFLGNYFDNWGQGATLTVSS
VL: DIQMTQSPASLSASVGETVTITCRASGNIHSYLAWYQQKQGKSPQLLVYYAETLADGVPSRFSGRGSGTQYSLKINSLQPEDFGSYFCQQFWTTPYTFGGGTKVEIK
For B2, the Kd is 1.55 nM in [2], 0.499 nM in [3], 0.968 nM in [4] and 0.94 nM in data set [6]. Further, in data set [7], the “EC50 of inhibition of MICA*004 shedding from the HCC1534 cell line” value stood at 0.599 µg/mL. Also, in data set [7], the “Max % inhibition of MICA*004 shedding from the HCC1534 cell line” value was found to be 56%. Moreover, in [8], the “EC50 of inhibition of MICA*002 shedding from the PANC1 cell line” value is 0.418 µg/mL. The “EC50 of inhibition of MICB*005 shedding” value in data set [5] was determined as 0.0349 µg/mL. Moreover, the “Max % inhibition of MICB*005 shedding” value in data set [5] is 76%. Moreover, in data set [9], the “EC50 of inhibition of MICA*008 shedding from the MEL-JUSO cell line” value turned out to be 0.794 µg/mL.

B3: anti-MICA/B antibody 1D5 (hybridoma-derived mouse antibody) (antibody, V domains shown)
VH: EIQLQQSGPELVKPGASVKVSCKASGYAFTSQNIYWVKQSHGKSLEWIGYIEPYNVVPMYNPKFKGKATLTVDKSSSSAYIHLNSLTSEDSAIYYCARSGSSNFDYWGQGTTLTVSS
VL: EIILTQSPTTMAASPGEKITITCSASSSISSHYLHWYQQKSGFSPKLLIYRTSNLASGVPARFSGSGSGTSYSLTIGTMEAEDVATYYCQQGSSLPLTFGAGTKLEIK
Turning to B3, the dissociation constant (Kd) worked out at 0.486 nM in data set [2], 0.675 nM in [3], 1.09 nM in data set [4] and 0.42 nM in data set [6]. The “EC50 of inhibition of MICA*004 shedding from the HCC1534 cell line” value in data set [7] was found to be 0.0136 µg/mL. Moreover, the “Max % inhibition of MICA*004 shedding from the HCC1534 cell line” value in [7] was found to be 65%. Besides, the “EC50 of inhibition of MICA*002 shedding from the PANC1 cell line” value in data set [8] came to 0.0341 µg/mL. In addition, the “EC50 of inhibition of MICB*005 shedding” value in data set [5] is 0.0386 µg/mL. In data set [5], the “Max % inhibition of MICB*005 shedding” value turned out to be 59%. For the same molecule, the “EC50 of inhibition of MICA*008 shedding from the MEL-JUSO cell line” value in [9] came out at 0.0207 µg/mL.
